For one protein, Km and kcat results are on record in article PMC3502260, “Plasmodium serine hydroxymethyltransferase as a potential anti-malarial target: inhibition studies using improved methods for enzyme production and assay” (Malaria Journal, 2012).

Substrate in series [1]: N[C@@H](CO)C(=O)O
The series can be described thus: purified protein. The class given is biochemical, Plasmodium vivax. Conditions: apparent, 0.4 mM THF fixed, 25 °C, 50 mM HEPES pH 7, aerobic.

Substrate in series [2]: Nc1nc2c(c(=O)[nH]1)N[C@@H](CNc1ccc(C(=O)N[C@@H](CCC(=O)O)C(=O)O)cc1)CN2
As to the kind of experiment: purified protein. It is filed as biochemical, Plasmodium vivax. Particulars: apparent, 2 mM L-serine fixed, 25 °C, 50 mM HEPES pH 7, aerobic.

B1: PvSHMT (Plasmodium vivax Sal-1) (protein)
chain: MFNNEPLEQIDKELHDILADEEKRQRETINLIASENLTNGAVRECLGNRVSNKYSEGYPKKRYYGGNDFIDKIEELCQKRALEAFNVSDEEWGVNVQPLSGSAANVQALYALVGVKGKIMGMHLCSGGHLTHGFFDEKKKVSITSDMFESKLYKCNSQGYVDLDAVREMALSFKPKVIICGYTSYPRDIDYQQFRQICDEVNAYLFADISHISSFVACNILNNPFLHADVVTTTTHKILRGPRSALIFFNKKRNPGIEQKINSAVFPSFQGGPHNNKIAAVACQLKEVHSPAFKEYTQQVLLNSKALAKALISKQIDLVTNGTDNHLIVVDLRKFSITGSKLQETCNAINVSLNKNTIPSDVDCVSPSGVRIGTPAMTTRGAKEKDMEFIADVLARAIKITVDLQEQYGKKLVDFKKGLPGNAQLQQLKQEVVTWAGALPFP
notes: recombinant, expressed in E. coli BL21(DE3) as in an earlier report; dimer
As for B1, in the series “purified protein [1]”, the Km (commonly the substrate concentration at which the rate is half of its maximum) came out at 190 ± 20 µM and the kcat – broadly, the maximal rate divided by the concentration of active sites – stood at 1.26 ± 0.13 s⁻¹. Further, in “purified protein [2]”, the Km amounted to 90 ± 20 µM and the kcat is 1.26 ± 0.13 s⁻¹.
